# Measured values: PMC7862519
# What was measured:
# [1] = target: D2 (his-tagged domain 2 of extracellular endo-alpha-(1->5)-L-arabinanase 1) (Geobacillus stearothermophilus T-6) (UniProt B3EYN2); experiment: reflectometric porous-silicon aptasensor (real-time EOT); settings: 5'-amino, Selection buffer: 50 mM K2HPO4, 150 mM NaCl, pH 7.4, flow 30 uL/min for 1 h, temperature not stated, elution with 1 M imidazole
# [2] = target: D2N (D2 without his tag) (Geobacillus stearothermophilus T-6) (UniProt B3EYN2); experiment: as above; settings: 1 uM protein, 5'-amino, Selection buffer: 50 mM K2HPO4, 150 mM NaCl, pH 7.4, flow 30 uL/min for 1 h, temperature not stated, elution with 1 M imidazole
sequence,measurement,setting,value
GCTATGGGTGGTCTGGTTGGGATTGGCCCCGGGAGCTGGC [anti-his tag aptamer 6H7],binding signal (relative dEOT/EOT0 x10^-3),"[1]; 0.25 uM protein, 3D-printed microfluidic",1.6
same,binding signal (relative dEOT/EOT0 x10^-3),"[1]; 0.5 uM protein, 3D-printed microfluidic, reused sensor",2.3
same,binding signal (relative dEOT/EOT0 x10^-3),"[1]; 1 uM protein, 3D-printed microfluidic, released by 1 M imidazole",4
same,binding signal (relative dEOT/EOT0 x10^-3),"[1]; 1 uM protein, PDMS microfluidic, signal partly non-specific adsorption",3.2
same,binding signal (relative dEOT/EOT0 x10^-3),"[2]; PDMS microfluidic, ascribed to non-specific adsorption",1.7
same,binding signal (relative dEOT/EOT0 x10^-3),[2]; 3D-printed microfluidic,0.8
